In patent US11517591B2, “Immunogenic peptides specific to BCMA and TACI antigens” (Dana-Farber Cancer Institute, Inc., priority 2017, dated 2022):
Each block holds one molecule with its values, some of them ahead of it.

What was measured:
HLA-A2 molecule [1] = target: T1, HLA-A2 molecule (Homo sapiens, UniProt P04439, D140Y/D185E/D98H/E176V/E277Q/G131W/G231S/I119V/I121R/I166T/I218V/L300P/L318F/N151K/N90K/P208A/P217A/Q86G/Q94H/R138H/R169H/T345S); experiment: HLA-A2 binding affinity assay on peptide-pulsed T2 cells (HLA-A2 up-regulation, flow cytometry MFI); conditions: for HLA-A2 binding affinity of native BCMA peptides: Example 12, six native peptides; for HLA-A2 specificity (up-regulation of HLA-A2 on T2 cells, MFI): native peptides 0-200 μg/ml, overnight, Example 3, FIGS. 2, 3; for HLA-A2 binding affinity, heteroclitic vs native peptide: Example 4, FIGS. 4 and 5; for change in HLA-A2 binding affinity of heteroclitic BCMA peptide compared to native peptide: Example 12, n=3, p<0.05; for HLA-A2 affinity of heteroclitic TACI peptide compared to native peptide: Example 13, peptide doses 50 μg/ml and 100 μg/ml
T1 construct: endogenous in cells; host or cells: T2 cell line (human B and T cell hybrid), provided by Dr. J. Molldrem
Method: The listed BCMA peptides were evaluated for HLA-A2-specific binding capacity using the T2 cell line. In the assay, T2 cells were washed, resuspended in serum-free AIM-V medium to a final concentration of 1×10^6 cells/ml and transferred into wells of a 24-well tissue culture plate. The cells were pulsed with different concentrations of respective BCMA peptide (0-200 μg/ml) plus 3 μg/ml human β2-microglobulin (Sigma) and incubated at 37° C., 5% CO2 in humidified air. Following overnight incubation, the cells were washed, stained with mouse anti-human HLA-A2-FITC mAb for 15 minutes at 4° C., washed and analyzed using a FACSort™ flow cytometer with CellQuest™ v2.1 software (Becton Dickinson, San Jose, Calif.). […] Among the BCMA peptides evaluated, “#4. […] (FIG. 2).
(§1) T2 cells were pulsed overnight with various doses of peptide plus β2-microglobulin (3 μg/ml) (Sigma, St Louis, Mo.). Following overnight incubation, the cells were stained with HLA-A2-PE mAb and analyzed using a FACSCanto™ flow cytometer (BD). Peptide/HLA-A2 complex stability was measured on peptide loaded T2 cells at 0, 2, 4, 6 and 14 hours post-brefeldin A treatment by staining with HLA-A2-PE mAb and flow cytometric analysis.
(§2) T2 cells were pulsed overnight with various concentrations of peptide plus β2-microglobulin (3 μg/ml) (Sigma, St Louis, Mo.). Following overnight incubation, the cells were stained with HLA-A2-PE mAb and analyzed using a FACSCanto™ flow cytometer (BD). The stability of peptide/HLA-A2 complex binding was measured on peptide loaded T2 cells at 0, 2, 4, 6 and 14 hours post-brefeldin A treatment followed by staining with HLA-A2-PE mAb and flow cytometric analysis.

HLA-A2 molecule [2] = target: T1, HLA-A2 molecule; experiment: Peptide/HLA-A2 complex stability on peptide-loaded T2 cells post-brefeldin A; type: binding
Method: The native and heteroclitic BCMA and TACI peptides were examined for HLA-A2 binding stability using the T2 cell line. T2 cells were pulsed with the respective peptide. After overnight incubation, the cells were washed to remove unbound peptide; they were evaluated for binding affinity as shown above and stability as following. The cells were incubated with 10 μg/ml Brefeldin A (Sigma) at 37° C. and 5% CO2 for 1 hour to block cell surface expression of newly synthesized HLA-A2 molecules. Peptide/HLA-A2 binding stability was evaluated at 0, 2, 4, 6 and 18 hours post-Brefeldin A treatment. Following the incubation period, the cells were harvested, washed, stained with mouse anti-human HLA-A2-FITC mAb and analyzed by flow cytometry. […] Therefore, the Heteroclitic #4 BCMA72-80 (YLMFLLRKI (SEQ ID NO: 13)) and Heteroclitic #3. TACI154-162 (YLSADQVAL (SEQ ID NO: 16) peptides were selected for further evaluation of their immunogenic potential to generate MM-specific cytotoxic T cells (CTLs).
as §1, §2

[3] = system: CD3+ T cells obtained from HLA-A2+ donors; experiment: Induction and phenotypic analysis of peptide-specific CTL by repeated peptide stimulation; type: cell-based, human
Method: The peptide-specific CTL were generated from different HLA-A2^+ normal donors for the evaluation of the functional activities targeting MM cell lines. To generate the peptide-specific CTL, mature dendritic cells (mDC) generated from the same donor were resuspended in serum-free AIM-V media and pulsed with 50 μg/ml of the Heteroclitic #4 BCMA72-80 (YLMFLLRKI (SEQ ID NO: 13)) peptide or “Heteroclitic #3 TACI154-162 (YLSADQVAL (SEQ ID NO: 16))” peptide, overnight at 37° C., 5% CO2 in humidified air. The peptide-pulsed mDC were washed, counted, irradiated at 10 Gy and used to prime CD3^+ T cells at a 1:20 antigen-presenting cells/peptide-to-CD3^+ T cell ratio in AIM-V media supplemented with 10% human AB serum. […] To maintain the T cells ex vivo, IL-2 (50 U/ml) was added to the cultures two days after the second stimulation. Control T cell cultures were maintained under the same culture conditions in the presence of IL-2 (50 U/ml), but without peptide stimulation. Phenotype of the resulting CTL was evaluated one week after each cycle of peptide stimulation. […] The BCMA peptide-specific CTL cultures contained a higher percentage of CD8^+ T cells (˜80%) upon 4 cycle of peptide stimulation compared to non-peptide stimulated control T cells (˜20%) (FIGS. 8A-8C).
Antigen-specific CTL can be phenotypically identified as activated/memory T cells from naïve T cells by their expression of distinct cell surface antigens. The phenotype of the BCMA-CTL were examined as potential effector cells by analyzing the phenotype of naïve and memory cells. BCMA peptide-specific CTL were generated by repeated stimulation of HLA-A2^+ normal donor's CD3^+ T cells weekly with antigen-presenting cells pulsed with 50 μg/ml heteroclitic BCMA72-80 (YLMFLLRKI (SEQ ID NO: 13)). One week after each peptide stimulation, the resulting CTL were evaluated for their phenotypic profile by flow cytometry.
BCMA peptide-specific CTL (BCMA-CTL) were generated ex vivo by repeated stimulation of CD3^+ T cells obtained from HLA-A2^+ donors with peptide-pulsed antigen-presenting cells (APC). In brief, peptide (50 μg/ml)-pulsed APC were irradiated (10 Gy) and used to stimulate T cells at a 1 APC/peptide: 20 T cell ratio. The T cell cultures were restimulated every 7 days and maintained in AIM-V medium supplemented with 10% human AB serum (BioWhittaker) in the presence of IL-2 (50 units/ml).
Phenotypic characterization was performed on BCMA-CTL after staining with Live/Dead Aqua stain kit and fluorochrome conjugated anti-human mAbs and Tetramer-PE. Alternatively, the MM and breast cancer cell lines were stained with fluorochrome-conjugated BCMA or HLA-A2 mAb. After staining, the cells were washed, fixed in 2% paraformaldehyde, and analyzed by flow cytometry.
TACI peptide-specific CTL (TACI-CTL) were generated ex vivo by repeated stimulation of enriched CD3^+ T cells obtained from HLA-A2^+ donors with peptide-pulsed antigen-presenting cells (APC). In brief, peptide (50 μg/ml)-pulsed APC were irradiated (10 Gy) and used to stimulate T cells at a 1:20 APC/peptide-to-T cell ratio. The T cell cultures were restimulated every 7 days and maintained in AIM-V medium supplemented with 10% human AB serum (BioWhittaker) in the presence of IL-2 (50 units/ml).
Phenotypic characterization was performed on the MM target cells to conform TACI expression. Phenotypic characterization was performed on the TACI-CTL after staining with Live/Dead Aqua stain kit and fluorochrome conjugated anti-human mAbs. After staining, the cells were washed, fixed in 2% paraformaldehyde, and analyzed by flow cytometry.

tumor cells = experiment: Combination of peptide stimulation/vaccination with immune modulatory drugs, peptide-specific CTL activity; type: cell-based, human; conditions: in combination with XBP1/CD138/CS1 peptide stimulation/vaccination
Text: Even in patients with refractory MINI relapsing after allotransplantation, long-lasting responses have been achieved with the infusion of donor lymphocytes (DLI). These early encouraging results of DLI have provided the framework for evaluation of active-specific immunotherapy approaches to treat MM. […] The success of vaccination depends on selection of the appropriate patient population, targeting antigens expressed selectively on tumor, and utilizing combination approaches to effectively induce and maintain antigen-specific memory anti-tumor immune responses. […] Importantly, these effects were confined primarily to antigen-specific CD45RO^+ memory CTL, with the most robust increases in IFN-γ and granzyme B production and CD8^+ T cell proliferation in response to tumor cells observed mainly within the specific CM subset.

[4] = system: patients with smoldering MM (SMM); experiment: Clinical trials of XBP1/CD138/CS1 multipeptide vaccine in smoldering MM; type: in vivo, human; conditions: multipeptide vaccine in combination with lenalidomide
Text: Due to the encouraging preclinical results, the XBP1/CD138/CS1 multipeptide vaccine has been evaluated, alone and in combination with lenalidomide, in clinical trials to treat patients with smoldering MM (SMM), as well as in combination with anti-PD1 in clinical trials to treat patients with triple negative breast cancer. […] Although stable disease and responses have been observed in SMM, randomized trials are needed to assess whether time to progression from SMM to active disease can be prolonged by the peptide vaccination.

[5] = after 3 cycles of peptide stimulation
[6] = after 4 cycles of peptide stimulation

Molecule: SQNEYFDSL [BCMA9-17 (SQNEYFDSL), native BCMA peptide]
HLA-A2 binding affinity of native BCMA peptides (HLA-A2 molecule [1]): non-HLA-A2 specific

Molecule: AILWTCLGL [BCMA54-62 (AILWTCLGL), native BCMA peptide]
HLA-A2 binding affinity of native BCMA peptides (HLA-A2 molecule [1]): highest HLA-A2 binding affinity in a dose-dependent manner
HLA-A2 specificity (up-regulation of HLA-A2 on T2 cells, MFI) (HLA-A2 molecule [1]): second highest level of the specificity

Molecule: YQNEYFDSL [heteroclite BCMA9-17, heteroclitic BCMA peptide]
change in HLA-A2 binding affinity of heteroclitic BCMA peptide compared to native peptide (HLA-A2 molecule [1]): did not alter its HLA-A2 affinity status

Molecule: YLGLCLCAV [heteroclitic TACI166-174, heteroclitic TACI peptide]
HLA-A2 affinity of heteroclitic TACI peptide compared to native peptide (HLA-A2 molecule [1]): no significant improvement in HLA-A2 affinity

Molecule: YLVAVACFL [heteroclitic TACI178-186, heteroclitic TACI peptide]
HLA-A2 affinity of heteroclitic TACI peptide compared to native peptide (HLA-A2 molecule [1]): no significant improvement in HLA-A2 affinity

Molecule: O=C(CCCCCCNC(=O)c1cnc(N(c2ccccc2)c2ccccc2Cl)nc1)NO [ACY241]
peptides-specific CTL activities against tumor cells (tumor cells): enhanced the peptides-specific CTL activities against tumor cells

Molecule: VLMFLLRKI [BCMA72-80 (VLMFLLRKI), native BCMA peptide]
HLA-A2 binding affinity of native BCMA peptides (HLA-A2 molecule [1]): highest HLA-A2 binding affinity in a dose-dependent manner
HLA-A2 specificity (up-regulation of HLA-A2 on T2 cells, MFI) (HLA-A2 molecule [1]): highest level of HLA-A2 specificity

Molecule: Nc1cccc2c1CN(C1CCC(=O)NC1=O)C2=O (stereo not drawn) [lenalidomide]
peptides-specific CTL activities against tumor cells (tumor cells): enhanced the peptides-specific CTL activities against tumor cells
CD8+ T cells with tetramer-positivity and IFN-γ production [4]: triggered higher mean fold increases in CD8^+ T cells with tetramer-positivity and IFN-γ production

More lines, main results first:

HLA-A2 stability of heteroclitic vs native BCMA peptide (HLA-A2 molecule [2]; Example 12): further enhanced
HLA-A2 binding affinity, heteroclitic vs native peptide (HLA-A2 molecule [1]): increased from their native peptide
Molecule: YILWTCLGL [heteroclitic hBCMA54-62, heteroclitic BCMA peptide]
change in HLA-A2 binding affinity of heteroclitic BCMA peptide compared to native peptide (HLA-A2 molecule [1]): highest increase in HLA-A2 binding affinity

HLA-A2 binding affinity, heteroclitic vs native peptide (HLA-A2 molecule [1]): increased from their native peptide
Molecule: YLSADQVAL [heteroclitic TACI154-162, heteroclitic TACI peptide]
CM CD8+ T cells [3, 5]: 47.8%
EM CD8+ T cells [3, 5]: 52.4%
Naïve CD8+ T cells [3, 5]: 2.2%
CM CD8+ T cells [3, 6]: 24.4%
EM CD8+ T cells [3, 6]: 74.1%
Naïve CD8+ T cells [3, 6]: 0.72%
frequency of effector memory (CD45RO+/CCR7-) CD3+CD8+ T cells [3, 6]: increased
CM CD8+ T cells ([3]; after 5 cycles of stimulation): 7.36%
EM CD8+ T cells ([3]; after 5 cycles of stimulation): 69.7%
Naïve CD8+ T cells ([3]; after 5 cycles of stimulation): 0.57%
HLA-A2 binding stability, heteroclitic vs native peptide (HLA-A2 molecule [2]; 50 ug/ml, 0, 2, 4, 6 and 18 hours post-Brefeldin A, Example 4, FIGS. 6 and 7): significant improvement in their HLA-A2 affinity at all the time points evaluated
HLA-A2 binding affinity (time=0) and stability compared to native peptide (HLA-A2 molecule [2]; TACI peptides 50 μg/ml, 2, 4, 6 and 18 hours): highest HLA-A2 binding affinity (time=0) and stability (2, 4, 6 and 18 hours)
HLA-A2 affinity of heteroclitic TACI peptide compared to native peptide (HLA-A2 molecule [1]): greatly enhanced affinity from its native form

HLA-A2 affinity of native TACI peptides (HLA-A2 molecule [1]; Example 13, six native peptides): highest level of affinity
HLA-A2 specificity (up-regulation of HLA-A2 on T2 cells, MFI) (HLA-A2 molecule [1]): highest level
Molecule: TLGLCLCAV [TACI166-174 (TLGLCLCAV), native TACI peptide]
